Laboratory results taken from patent publication US9399667B2, “Peptides derived from cytotoxicity receptor natural killer protein 44 NKP44” (03;b. G. NEGEV TECHNOLOGIES AND APPLICATIONS LTD., AT …, priority 2012, dated 2016).

How the values were obtained:
human cancer cells = assay: Direct binding of biotin-conjugated NKp44-derived peptides to human cancer cells (flow cytometry); details: biotin-conjugated peptide 10 μg/well; number in brackets is an undefined grade
NKp44-Ig = molecular target: T1, NKp44-Ig (Homo sapiens, UniProt O95944); assay: Effect of peptides on NKp44-Ig binding to tumor cells (flow cytometry); details: for Effect on NKp44-Ig binding to tumor cells: 2 μg/well NKp44-Ig, 10 μg/well peptide, 1.5 hr, number in brackets is an undefined grade
T1 construct: fusion proteins containing the extracellular domains NKp30, NKp44 or NKp46 fused to the Fc portion of human IgG1
T1 sequence (O95944 22-192 limits assumed): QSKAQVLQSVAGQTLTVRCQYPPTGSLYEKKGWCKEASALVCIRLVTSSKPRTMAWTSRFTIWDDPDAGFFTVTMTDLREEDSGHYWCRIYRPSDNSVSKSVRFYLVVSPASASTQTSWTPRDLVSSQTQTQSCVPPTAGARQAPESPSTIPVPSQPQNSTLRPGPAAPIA
Description: (§1) Binding of rNK receptors and binding inhibition assays were performed as follows: 1×10^5 target cells were incubated with 2 μg of the NK receptor-Ig and 5 or 10 μg of the peptides in staining solution consisting of 0.5% (w/v) BSA and 0.05% sodium azide in PBS at 4° C. for 1.5 hrs. Then, cells were washed and stained with APC-conjugated anti-human IgG. Dead cells were detected with propidium iodide (PI). Percentage of inhibition was calculated as the percent of the cell population showing a reduced staining by the NK receptor-Ig in the presence of peptides as compared to reference positive staining by the NK receptor-Ig without peptides. […] Flow cytometry was performed using a FACSCanto II or FACScalibur (BD Bioscience) and results were analyzed using Diva 6.1.2 or CellQuest 3.3, respectively.
Target cells were incubated for 1.5 hr with 2 μg/well NKp44-Ig and 10 μg/well of each peptide. NKp44-Ig binding intensity was determined by flow cytometry, using fluorescent 2Ab (goat anti-mouse mAb).
(§2) Target cells were stained with 2 μg/well of NK receptor-Igs in the presence of 10 μg/well of SEQ ID NO: 4, 5, 55 (15mer-shared core sequence between SEQ ID NO:4 and 5), or SEQ ID NO: 1. The NK receptor-Ig staining intensities were determined by flow cytometry, using fluorescent APC-conjugated F(ab′)2 goat anti-human IgG.

[1] = system: human cancer cells, MIN6 murine beta cell line and primary mouse beta cells; assay: Direct binding of biotin-conjugated NKp46-derived peptides to target cells (flow cytometry, fluorescent Streptavidin); details: biotin-conjugated peptide 10 μg/well, number in brackets is an undefined grade
NKp46D2-Ig = molecular target: T2, NKp46D2-Ig (Homo sapiens, UniProt O76036); assay: Effect of peptides on NKp46D2-Ig binding to target cells (flow cytometry); details: for Effect on NKp46D2L binding to cells: 1.5 hr, compared to staining without peptide or with non-affecting peptides, number in brackets is an undefined grade
T2 construct: made in house
T2 sequence (O76036 with tags, fused parts or gaps isoform O76036-6): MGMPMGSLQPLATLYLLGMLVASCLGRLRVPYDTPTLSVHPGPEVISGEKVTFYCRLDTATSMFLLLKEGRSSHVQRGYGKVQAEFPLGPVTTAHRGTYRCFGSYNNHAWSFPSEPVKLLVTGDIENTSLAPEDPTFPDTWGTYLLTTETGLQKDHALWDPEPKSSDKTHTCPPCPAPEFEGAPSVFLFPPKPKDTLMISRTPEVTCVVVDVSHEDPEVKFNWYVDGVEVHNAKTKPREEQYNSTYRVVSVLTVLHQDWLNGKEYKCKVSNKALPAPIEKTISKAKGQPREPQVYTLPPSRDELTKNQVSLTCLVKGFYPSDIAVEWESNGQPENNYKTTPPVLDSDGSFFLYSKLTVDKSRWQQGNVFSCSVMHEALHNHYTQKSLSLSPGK
Description: as §1
(§3) Target cells were incubated for 1.5 hr with 2 μg/well NKp46D2-Ig and 10 μg/well of each peptide. NKp46D2-Ig binding intensity was determined by flow cytometry, using fluorescent 2Ab (goat anti-mouse monoclonal antibody).
as §2

LIR1-Ig = molecular target: T3, LIR1-Ig (Homo sapiens, UniProt Q8NHL6); assay: Effect of peptides on LIR1-Ig binding to target cells (flow cytometry); details: for Binding of LIR1-Ig in the presence of peptide: Example 1, FIGS. 3 and 5, HeLa cells
T3 construct: made in house
T3 sequence (Q8NHL6 24-461 limits assumed): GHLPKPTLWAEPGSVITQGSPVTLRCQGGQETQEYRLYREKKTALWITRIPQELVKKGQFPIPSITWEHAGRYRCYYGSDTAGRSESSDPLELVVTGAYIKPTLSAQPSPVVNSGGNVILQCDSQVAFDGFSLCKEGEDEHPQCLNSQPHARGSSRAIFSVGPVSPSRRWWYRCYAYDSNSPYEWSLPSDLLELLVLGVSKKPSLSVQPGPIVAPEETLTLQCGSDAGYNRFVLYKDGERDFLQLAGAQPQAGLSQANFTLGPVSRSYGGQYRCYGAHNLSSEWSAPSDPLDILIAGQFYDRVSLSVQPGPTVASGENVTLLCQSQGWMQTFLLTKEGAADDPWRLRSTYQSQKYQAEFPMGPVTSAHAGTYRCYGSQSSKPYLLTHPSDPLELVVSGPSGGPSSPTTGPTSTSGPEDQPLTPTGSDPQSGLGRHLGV
Description: as §1, with “target cells were incubated with 2 μg of the NK receptor-Ig and 5 or 10 μg of the peptides in staining solution consisting” left out
as §3, §2

NKp46-Ig = molecular target: T4, NKp46-Ig (Homo sapiens, UniProt O76036); assay: Effect of peptides on NKp46-Ig binding to tumor cells (flow cytometry); details: Example 3, FIG. 9B/9C; 10 μg/well peptide; to a lesser extent than NKp46D2-Ig binding
T4 construct: fusion proteins containing the extracellular domains NKp30, NKp44 or NKp46 fused to the Fc portion of human IgG1; made in house
T4 sequence (O76036 22-258 limits assumed): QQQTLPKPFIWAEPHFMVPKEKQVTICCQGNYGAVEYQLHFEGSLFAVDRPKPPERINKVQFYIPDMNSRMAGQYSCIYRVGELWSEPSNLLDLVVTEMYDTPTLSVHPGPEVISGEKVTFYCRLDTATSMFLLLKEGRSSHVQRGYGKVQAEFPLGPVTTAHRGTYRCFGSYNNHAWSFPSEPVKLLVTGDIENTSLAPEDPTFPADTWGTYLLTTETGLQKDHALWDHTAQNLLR
Description: as §1, §2

NKp30-Ig = molecular target: T5, NKp30-Ig (Homo sapiens, UniProt O14931); assay: Effect of peptide on NKp30-Ig binding to HeLa cells (flow cytometry); details: pep4 0.625 to 10 μg/well, FIG. 9D
T5 construct: fusion proteins containing the extracellular domains NKp30, NKp44 or NKp46 fused to the Fc portion of human IgG1; made in house
T5 sequence (O14931 19-135 limits assumed): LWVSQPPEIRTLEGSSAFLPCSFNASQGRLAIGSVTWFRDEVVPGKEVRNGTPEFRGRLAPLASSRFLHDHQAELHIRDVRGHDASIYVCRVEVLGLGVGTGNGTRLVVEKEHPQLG
Description: as §1, with “target cells were incubated with 2 μg of the NK receptor-Ig and 5 or 10 μg of the peptides in staining solution consisting” left out
as §2

[2] = system: NKp46-expressing NK cells; assay: Flow cytometry cytotoxicity assay: lysis of target tumor cells by human primary NK cells; format: cell-based
Description: (§4) NK cells were isolated from the peripheral blood of healthy donors using a human NK cell isolation kit (Miltenyi Biotec). NK purity was greater than 90% (CD3^−CD56^±). Purified NK cells were cultured in CellGro SCGM serum-free medium (CellGenix, 2001) supplemented with 10% heat inactivated human plasma from healthy donors, 1 mM sodium pyruvate, 2 mM L-glutamine, MEM non-essential amino acids, 1% penicillin/streptomycin, 10 mM HEPES (Gibco™) and 300 IU/ml of human IL-2 (Biological Industries Israel Ltd).
(§5) The flow cytometry cytotoxicity assay was previously described (Flodstrom et al. Diabetes 48, 706-713 (1999)). Effector human primary NK cells were labeled with CellTrace CFSE (Invitrogen, C3554). Analysis of 7-AAD for negative-CFSE target tumor cells was performed using a FACSCantoII and data were analyzed by Diva 6.1.2. For blocking experiments, NK cells were pre-incubated with mouse polyclonal anti-NKp46 serum or with naive serum 30 min at 4° C. before being combined with target cells. The NK degranulation assay was performed as previously described (Raulet, D. H. Nat Rev Immunol 3, 781-790 (2003); Biassoni, R. et al. Eur J Immunol 29, 1014-1020 (1999)).
Next, the influence of the peptide of SEQ ID NO: 4 on NK cells function was investigated. Target HeLa cells were plated and pep4 or mock peptide was added just before adding an effector human primary NK cell line. […] To verify that the peptide of SEQ ID NO: 4 inhibits NKp46-mediated lysis, anti-NKp46 serum was used to block the receptor on human primary NK cells.

human primary NK cells = assay: CD107a (LAMP-1) degranulation assay of human primary NK cells; format: cell-based; details: co-cultured with HeLa or 721.221 target cells for four hours at different E:T ratios; FIG. 10C, p<0.05
Description: as §4
as §5, with “1014-1020 (1999)). […]” for “1014-1020 (1999)).”

[3] = 2 μg/well NKp46D2-Ig, 10 μg/well peptide
[4] = HeLa cells, pep4 0.625 to 10 μg/well, FIG. 9D

“EASAL VCIRL VTSSK PRTVA (EASALVCIRLVTSSKPRTVA) [SEQ ID NO: 32]” was tested. Which “Direct binding to tumor cells” value (human cancer cells) did it give?
Its value is “Yes (1)”.

And the “Effect on NKp44-Ig binding to tumor cells” value (from here on “Effect on NKp44-Ig binding”) (NKp44-Ig)?
The value was “Enhance (1)”.

For “KGWCK EASAL VCIRL VTSSK (KGWCKEASALVCIRLVTSSK) [SEQ ID NO: 31]”, which “Direct binding to tumor cells” value (human cancer cells) is on record?
The value was “Yes (1)”.

What about the “Effect on NKp44-Ig binding” value (NKp44-Ig) of the same substance?
Its value is “Enhance (1)”.

Which results are given for “LDTAT SMFLL LKEGR SSHVQ (LDTATSMFLLLKEGRSSHVQ) [SEQ ID NO: 6]”?
Direct binding to cells [1]: No; Effect on NKp46D2L binding to cells (NKp46D2-Ig; [3]): inhibiting binding; Effect on NKp46D2L binding to cells (NKp46D2-Ig; 2 μg/well NKp46D2-Ig, 10 μg/well peptide, listed as 6): Suppress (1); Binding of LIR1-Ig in the presence of peptide (LIR1-Ig): not affected

For “PLGPV TTAHR GTYRC FGSYN (PLGPVTTAHRGTYRCFGSYN) [SEQ ID NO: 12]”, which “Direct binding to cells” value [1] is on record?
Its value is “direct binding”.

And the “Direct binding to cells” value ([1]; listed as 12)?
The value was “Yes (3)”.

What about the “Effect on NKp46D2L binding to cells” value (NKp46D2-Ig; [3]) of the same substance?
The value was “enhancing NKp46D2-Ig binding”.

What about the “Effect on NKp46D2L binding to cells” value (NKp46D2-Ig; 2 μg/well NKp46D2-Ig, 10 μg/well peptide, listed as 12) of the same substance?
Its value is “Enhance (3)”.

And the “Binding of LIR1-Ig in the presence of peptide” value (LIR1-Ig)?
The value was “not affected”.

What does the source list for “SGEKV TFYCR LDTAT SMFLL (SGEKVTFYCRLDTATSMFLL) [SEQ ID NO: 4]”?
Direct binding to cells [1]: No; Effect on NKp46D2L binding to cells (NKp46D2-Ig; [3]): inhibiting binding; Effect on NKp46D2L binding to cells (NKp46D2-Ig; 2 μg/well NKp46D2-Ig, 10 μg/well peptide, listed as 4): Suppress (2); Binding of NKp46D2-Ig to HeLa cells upon co-incubation with peptide (NKp46D2-Ig; Example 3, FIG. 9A, 2 μg/well NKp46D2-Ig, 10 μg/well peptide): inhibited binding; Inhibition of rNKp46 binding across tumor cell lines (NKp46D2-Ig; HeLa, PC-3, HEK293T, 721.221, CHO-K1 and MIN-6 cells, FIG. 9C): evident for numerous tumor cell lines; Binding of LIR1-Ig in the presence of peptide (LIR1-Ig): not affected; Binding inhibition of LIR1-Ig (LIR1-Ig; [4]): did not induce significant binding inhibition; Binding inhibition of NKp44-Ig (NKp44-Ig; [4]): did not induce significant binding inhibition; NKp46-Ig binding to tumor cells in the presence of peptide (NKp46-Ig): inhibited; Binding inhibition of NKp30-Ig (NKp30-Ig): did not induce significant binding inhibition; Lysis of target 721.221 and CHO-K1 cells by NK cells ([2]; 721.221 and CHO-K1 target cells): inhibition of lysis; Lysis of target cells by NKp46-expressing NK cells ([2]; Example 1): inhibit lysis; Blocking effect of anti-NKp46 serum on lysis when the peptide was present ([2]; anti-NKp46 serum compared to control serum, FIG. 10B): no blocking effect was observed; Lysis of target cells in the presence of control serum ([2]; compared to control peptide, 15:1 E:T, FIG. 10B, p<0.01): inhibited lysis; Lysis of target HeLa cells by human primary NK cell line ([2]; compared to mock1, 4 hr, FIG. 10A, p<0.01): significantly suppressed; Percentage of CD107a+ NK cells (human primary NK cells): significantly reduced

What does the source list for “SMFLL LKEGR SSHVQ RGYGK (SMFLLLKEGRSSHVQRGYGK) [SEQ ID NO: 7]”?
Direct binding to cells [1]: direct binding; Direct binding to cells ([1]; listed as 7): Yes (1); Effect on NKp46D2L binding to cells (NKp46D2-Ig; [3]): enhancing NKp46D2-Ig binding; Effect on NKp46D2L binding to cells (NKp46D2-Ig; 2 μg/well NKp46D2-Ig, 10 μg/well peptide, listed as 7): Enhance (2); Binding of LIR1-Ig in the presence of peptide (LIR1-Ig): not affected

With “TFYCR LDTAT SMFLL (TFYCRLDTATSMFLL) [SEQ ID NO: 55]” as the substance, how does the “NKp46-Ig binding to tumor cells in the presence of peptide” value (NKp46-Ig) read?
Its value is “also inhibited”.

What does the source list for “TFYCR LDTAT SMFLL LKEGR (TFYCRLDTATSMFLLLKEGR) [SEQ ID NO: 5]”?
Direct binding to cells [1]: No; Effect on NKp46D2L binding to cells (NKp46D2-Ig; [3]): inhibiting binding; Effect on NKp46D2L binding to cells (NKp46D2-Ig; 2 μg/well NKp46D2-Ig, 10 μg/well peptide, listed as 5): Suppress (2); Binding of LIR1-Ig in the presence of peptide (LIR1-Ig): not affected; NKp46-Ig binding to tumor cells in the presence of peptide (NKp46-Ig): inhibited

“TTAHR GTYRC FGSYN NHAWS (TTAHRGTYRCFGSYNNHAWS) [SEQ ID NO: 13]” was tested. Which “Direct binding to cells” value [1] did it give?
The value was “direct binding”.

What about the “Direct binding to cells” value ([1]; listed as 13) of the same substance?
Its value is “Yes (2)”.

And the “Effect on NKp46D2L binding to cells” value (NKp46D2-Ig; [3])?
The value was “enhancing NKp46D2-Ig binding”.

And the “Effect on NKp46D2L binding to cells” value (NKp46D2-Ig; 2 μg/well NKp46D2-Ig, 10 μg/well peptide, listed as 13)?
The value was “Enhance (1.5)”.

And the “Binding of LIR1-Ig in the presence of peptide” value (LIR1-Ig)?
Its value is “not affected”.

With “VCIRL VTSSK PRIMA WTSRF (VCIRLVTSSKPRTMAWTSRF) [SEQ ID NO: 33]” as the substance, how does the “Effect on NKp44-Ig binding” value (NKp44-Ig) read?
Its value is “Enhance (1)”.

How did the “Direct binding to tumor cells” value (human cancer cells) turn out when “VTSSK PRTVA WTSRF TIWDD (VTSSKPRTVAWTSRFTIWDD) [SEQ ID NO: 34]” was run?
Its value is “No”.

And the “Effect on NKp44-Ig binding” value (NKp44-Ig)?
The value was “inhibiting binding”.

And the “Effect on NKp44-Ig binding” value (NKp44-Ig; listed as 34)?
The value was “Suppress (1.5)”.
